The record followed here is patent US20230221313A1.

The assay deals with HIV-1 BG505.W6M.Env.C2 pseudovirus (Env) (HIV-1). In words: cell-based or functional assay.

Consider VRC34 (antibody), for which the Fold change GFP-/GFP+ (droplet neutralization, NGS reads), Round 1 turned out to be 1.78.

Turning to anti-HIV antibody VRC01, the Fold change GFP-/GFP+ (droplet neutralization, NGS reads), Round 1 stood at 1.08.
